In patent US20260008830A1 (FUNDACI CENTRE DE REGULACI GEN MICA, published 2026):

B1: 3dlq. Pdb sequence-Hydrophobic core stabilised protein (IL-22hydC) (ligand)
chain: ARLDKSNFQQPYITNRMFMLAKEMSLADNNTDVRLIGEKLFHGVSMSERCYLMKQILNFMLEEVLFPQSDRFQPYMQEVVPFLARLSNRLSTCHIEGDDLHIQRNVQKLKDTVKKLGELGEIKAIGELDLLFMSLRNACI
B2: mutantE_IL22 (A132Y, D43E, S45R, E77Y, T70I, K61W, S64M) (ligand)
chain: APISSHCREDRSNFQQPYITNRTFMLAWEAMLADNNIDVRLIGYKLFHGVSMSERCYLMKQVLNFTLEEVLFPQSDRFQPYMQEVVPFLYRLSNRLSTCHIEGDDLHIQRNVQKLKDTVKKLGESGEIKAIGELDLLFMSLRNACI
B3: mutantD_IL22 (K61W, S64M) (ligand)
chain: APISSHCRLDKSNFQQPYITNRTFMLAWEAMLADNNTDVRLIGEKLFHGVSMSERCYLMKQVLNFTLEEVLFPQSDRFQPYMQEVVPFLARLSNRLSTCHIEGDDLHIQRNVQKLKDTVKKLGESGEIKAIGELDLLFMSLRNACI
B4: foldikine-22_1 (SCIL22_1) (ligand)
chain: GCRLDKSNFQQPYITNRTFMLAKEASLADNNTDVRLIGEKLFHGVSMSERCYLMKQVLNFTLEEVLFPQSDRFQPYMQEVVPFLARLSNRLSTCMPGGSKTHIQRNVQKLKDTVKKLGESGEIKAIGELDLLFMSLRNACIANGTLDKSNFQQPYITNRTFMLAKEASLADNNTDVRLIGEKLFHGVSMSERCYLMKQVLNFTLEEVLFPQSDRFQPYMQEVVPFLARLSNRLSRLELLPHIQRNVQKLKDTVKKLGESGEIKAIGELDLLFMSLRNACI
B5: foldikine-22_3 (SCIL22_3) (ligand)
chain: GVRLDKSNFQQPYITNRTFMLAKEASLADNNTDVRLIGEKLFHGVSMSERCYLMKQVLNFTLEEVLFPQSDRFQPYMQEVVPFLARLSNRLKKLMASSDHIQRNVQKLKDTVKKLGESGEIKAIGELDLLFMSLRNACIANGTLDKSNFQQPYITNRTFMLAKEASLADNNTDVRLIGEKLFHGVSMSERCYLMKQVLNFTLEEVLFPQSDRFQPYMQEVVPFLARLSNRLSRLELLPHIQRNVQKLKDTVKKLGESGEIKAIGELDLLFMSLRNACI
B6: MutSC2 (MutSC1 with the Mut3 point mutations) (ligand)
chain: MTQSENSCTHFPGILPNMLRDLREAFKRVKTFFQMKDQLDSLLLKESLLEDFKGYLGCQALSEMIQFYLEEVMPQAENQDPDIKAHVISLGENLNTLRLRLRRCHRFLPCENKSKAVEQVKNAFNKLQEKGIYKAMSEFDIFINYIEAYMMMNNGGLDYLPNMLRDLREAFKRVKTFFQMKDQLDSLLLKESLLEDFKGYLGCQALSEMIQFYLEEVMPQAENQDPDIKAHVISLGENLNTLRLRLRRNHRFLPCENKSKAVEQVKNAFNKLQEKGIYKAMSEFDIFINYIEAYMMMKIRN
B7: MutSC1 (foldikine_10, single chain dimeric IL-10) (ligand)
chain: MTQSENSCTHFPGNLPNMLRDLRDAFSRVKTFFQMKDQLDNLLLKESLLEDFKGYLGCQALSEMIQFYLEEVMPQAENQDPDIKAHVNSLGENLKTLRLRLRRCHRFLPCENKSKAVEQVKNAFNKLQEKGIYKAMSEFDIFINYIEAYMTMNNGGLDYLPNMLRDLRDAFSRVKTFFQMKDQLDNLLLKESLLEDFKGYLGCQALSEMIQFYLEEVMPQAENQDPDIKAHVNSLGENLKTLRLRLRRNHRFLPCENKSKAVEQVKNAFNKLQEKGIYKAMSEFDIFINYIEAYMTMKIRN
B8: MutM (engineered monomeric IL-10 with an inserted polyGly loop between Asn116 and Lys117) (ligand)
chain: MSPGQGTQSENSCTHFPGNLPNMLRDLRDAFSRVKTFFQMKDQLDNLLLKESLLEDFKGYLGCQALSEMIQFYLEEVMPQAENQDPDIKAHVNSLGENLKTLRLRLRRCHRFLPCENGGGSGGKSKAVEQVKNAFNKLQEKGIYKAMSEFDIFINYIEAYMTMKIRN
B9: Mut3 (IL-10 D28E, S31K, N45S, T155M, N18I, N92I, K99N) (ligand)
chain: MSPGQGTQSENSCTHFPGILPNMLRDLREAFKRVKTFFQMKDQLDSLLLKESLLEDFKGYLGCQALSEMIQFYLEEVMPQAENQDPDIKAHVISLGENLNTLRLRLRRCHRFLPCENKSKAVEQVKNAFNKLQEKGIYKAMSEFDIFINYIEAYMMMKIRN
B10: Mut1 (IL-10 D28E, S31R, N45S, T155M) (ligand)
chain: MSPGQGTQSENSCTHFPGNLPNMLRDLREAFRRVKTFFQMKDQLDSLLLKESLLEDFKGYLGCQALSEMIQFYLEEVMPQAENQDPDIKAHVNSLGENLKTLRLRLRRCHRFLPCENKSKAVEQVKNAFNKLQEKGIYKAMSEFDIFINYIEAYMMMKIRN
B11: Mut2 (IL-10 D28E, S31K, N45S, T155M) (ligand)
chain: MSPGQGTQSENSCTHFPGNLPNMLRDLREAFKRVKTFFQMKDQLDSLLLKESLLEDFKGYLGCQALSEMIQFYLEEVMPQAENQDPDIKAHVNSLGENLKTLRLRLRRCHRFLPCENKSKAVEQVKNAFNKLQEKGIYKAMSEFDIFINYIEAYMMMKIRN
B12: ORK2-007 (foldikine-2, two 7 aa InterLinkers GPPPPPG) (ligand)
chain: LRPRDLISNINVIVLELKGSETTFMCEYADETATIVEFLNRWITFCQSIISTLTGPPPPPGTKKTQLQLEHLLLDLQMILNGINNYKNPKLTRMLTFKFYMPKKATELKHLQCLEEELKPLEEVLNLAQSKNFHLRPRDLISNINVIVLELKGSETTFMCEYADETATIVEFLNRWITFCQSIISTLTGPPPPPGTKKTQLQLEHLLLDLQMILNGINNYKNPKLTRMLTFKFYMPKKATELKHLQCLEEELKPLEEVLNLAQS
B13: ORK2-009 (foldikine-2, two 6 aa InterLinkers GGGSGG) (ligand)
chain: LRPRDLISNINVIVLELKGSETTFMCEYADETATIVEFLNRWITFCQSIISTLTGGGSGGTKKTQLQLEHLLLDLQMILNGINNYKNPKLTRMLTFKFYMPKKATELKHLQCLEEELKPLEEVLNLAQSKNFHLRPRDLISNINVIVLELKGSETTFMCEYADETATIVEFLNRWITFCQSIISTLTGGGSGGTKKTQLQLEHLLLDLQMILNGINNYKNPKLTRMLTFKFYMPKKATELKHLQCLEEELKPLEEVLNLAQS
B14: ORK2-008 (foldikine-2, two 8 aa InterLinkers GPPPPPPG) (ligand)
chain: LRPRDLISNINVIVLELKGSETTFMCEYADETATIVEFLNRWITFCQSIISTLTGPPPPPPGTKKTQLQLEHLLLDLQMILNGINNYKNPKLTRMLTFKFYMPKKATELKHLQCLEEELKPLEEVLNLAQSKNFHLRPRDLISNINVIVLELKGSETTFMCEYADETATIVEFLNRWITFCQSIISTLTGPPPPPPGTKKTQLQLEHLLLDLQMILNGINNYKNPKLTRMLTFKFYMPKKATELKHLQCLEEELKPLEEVLNLAQS

What follows are binders tested against T1, IL-22 receptors R1 and R2 on HEK-Blue IL-22 reporter cells (UniProt Q8N6P7 16-574; Q08334 20-325, limits assumed) (assay: cell-based or functional assay).
T1 sequence (looked up) 1: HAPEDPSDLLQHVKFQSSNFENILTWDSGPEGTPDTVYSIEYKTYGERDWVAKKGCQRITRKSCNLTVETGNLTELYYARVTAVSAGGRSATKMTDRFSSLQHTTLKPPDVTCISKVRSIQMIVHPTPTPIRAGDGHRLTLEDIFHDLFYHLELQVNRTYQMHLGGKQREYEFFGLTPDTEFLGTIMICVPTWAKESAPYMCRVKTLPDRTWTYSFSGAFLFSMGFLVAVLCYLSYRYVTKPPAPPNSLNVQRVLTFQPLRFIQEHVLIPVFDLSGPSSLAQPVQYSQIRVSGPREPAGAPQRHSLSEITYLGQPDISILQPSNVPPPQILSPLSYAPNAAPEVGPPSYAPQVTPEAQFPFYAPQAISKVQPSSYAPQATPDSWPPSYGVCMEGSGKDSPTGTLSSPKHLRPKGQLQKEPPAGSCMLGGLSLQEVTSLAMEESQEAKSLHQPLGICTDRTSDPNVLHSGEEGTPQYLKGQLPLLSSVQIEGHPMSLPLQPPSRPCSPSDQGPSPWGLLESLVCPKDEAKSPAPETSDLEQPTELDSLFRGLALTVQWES
T1 sequence (looked up) 2: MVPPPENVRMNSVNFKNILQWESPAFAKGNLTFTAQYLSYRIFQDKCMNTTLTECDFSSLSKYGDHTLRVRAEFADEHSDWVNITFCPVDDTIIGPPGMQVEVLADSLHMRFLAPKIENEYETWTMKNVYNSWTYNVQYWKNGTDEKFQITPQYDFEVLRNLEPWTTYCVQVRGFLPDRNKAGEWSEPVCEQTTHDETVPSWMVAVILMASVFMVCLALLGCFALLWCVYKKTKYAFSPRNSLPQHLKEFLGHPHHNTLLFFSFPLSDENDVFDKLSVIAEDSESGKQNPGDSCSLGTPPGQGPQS

| Binder | Kd (apparent, HEK-Blue IL-22 reporter) | gain in affinity against IL-22 WT (HEK-Blue IL-22 reporter) | increase in affinity over wt | apparent Kd in comparison with IL22 WT (HEK-Blue IL-22 reporter) |
| --- | --- | --- | --- | --- |
| B1 | 0.0054 nM | 2 fold |  |  |
| B2 |  |  | 10 fold |  |
| B3 |  |  | 2 fold |  |
| B4 |  |  |  | ~4 fold |
| B5 |  |  |  | ~4 fold |

The binders below were run against T2, IL-10 receptors R1 and R2 on HEK-Blue IL-10 reporter cells (UniProt Q13651 22-578; Q08334 20-325, limits assumed) (assay: cell-based or functional assay).
T2 sequence (looked up) 1: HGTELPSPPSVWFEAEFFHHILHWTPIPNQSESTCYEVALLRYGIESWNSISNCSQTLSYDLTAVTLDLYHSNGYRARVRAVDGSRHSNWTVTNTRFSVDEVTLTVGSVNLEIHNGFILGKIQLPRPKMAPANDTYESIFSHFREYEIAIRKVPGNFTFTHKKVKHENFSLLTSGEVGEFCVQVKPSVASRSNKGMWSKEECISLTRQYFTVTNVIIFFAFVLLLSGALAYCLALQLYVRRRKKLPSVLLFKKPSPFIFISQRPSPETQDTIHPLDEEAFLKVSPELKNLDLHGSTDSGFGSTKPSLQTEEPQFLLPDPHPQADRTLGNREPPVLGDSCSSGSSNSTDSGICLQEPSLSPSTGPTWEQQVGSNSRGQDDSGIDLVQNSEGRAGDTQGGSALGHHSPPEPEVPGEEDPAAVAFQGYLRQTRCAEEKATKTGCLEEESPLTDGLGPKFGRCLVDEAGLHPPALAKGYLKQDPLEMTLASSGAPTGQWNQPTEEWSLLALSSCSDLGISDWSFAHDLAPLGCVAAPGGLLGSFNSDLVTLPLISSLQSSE
T2 sequence (looked up) 2: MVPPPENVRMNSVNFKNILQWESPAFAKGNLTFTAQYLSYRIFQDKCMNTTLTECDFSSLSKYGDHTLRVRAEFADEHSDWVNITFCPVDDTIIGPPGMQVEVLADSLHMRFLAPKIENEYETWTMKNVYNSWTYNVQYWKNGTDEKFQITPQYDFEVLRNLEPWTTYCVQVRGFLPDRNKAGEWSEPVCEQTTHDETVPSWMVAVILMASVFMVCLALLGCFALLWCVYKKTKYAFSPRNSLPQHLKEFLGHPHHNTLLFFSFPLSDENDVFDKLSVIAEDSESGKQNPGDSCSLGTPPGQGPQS

| Binder | Apparent Kd (M) average (HEK-Blue IL-10 SEAP reporter, absorbance 630 nm, saturation binding fit) | Fold change-apparentKD (against IL-10 ORF) |
| --- | --- | --- |
| B6 | 1.2e-11 M | 16.5 fold |
| B7 | 1.9e-11 M | 10.4 fold |
| B8 | 2.56e-10 M | 0.773 fold |
| B9 | 2.61e-11 M | 7.59 fold |
| B10 | 1.45e-10 M | 1.37 fold |
| B11 | 6.45e-11 M | 3.07 fold |

What follows are binders tested against IL-2 receptor on IL-2 reporter HEK blue cells (Human IL-2 & IL-15 Reporter Cells, hkb-il2bg) (assay: cell-based or functional assay).
Chain of IL-2 receptor on IL-2 reporter HEK blue cells (Human IL-2 & IL-15 Reporter Cells, hkb-il2bg) (P14784 whole entry, chain 1 of 2): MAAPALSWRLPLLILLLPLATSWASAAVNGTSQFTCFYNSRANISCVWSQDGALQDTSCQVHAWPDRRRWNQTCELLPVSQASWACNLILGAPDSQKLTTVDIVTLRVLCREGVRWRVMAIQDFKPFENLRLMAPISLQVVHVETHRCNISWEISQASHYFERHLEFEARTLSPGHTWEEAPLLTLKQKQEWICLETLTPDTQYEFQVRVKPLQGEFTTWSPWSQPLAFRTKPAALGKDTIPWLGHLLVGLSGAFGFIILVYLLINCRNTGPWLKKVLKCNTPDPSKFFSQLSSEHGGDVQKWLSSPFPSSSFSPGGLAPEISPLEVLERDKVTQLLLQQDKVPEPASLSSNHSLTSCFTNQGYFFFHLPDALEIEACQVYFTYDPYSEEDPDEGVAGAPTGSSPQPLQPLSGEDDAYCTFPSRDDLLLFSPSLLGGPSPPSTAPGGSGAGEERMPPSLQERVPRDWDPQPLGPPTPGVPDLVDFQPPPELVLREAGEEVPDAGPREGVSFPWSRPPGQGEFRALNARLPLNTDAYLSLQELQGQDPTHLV
Chain of IL-2 receptor on IL-2 reporter HEK blue cells (Human IL-2 & IL-15 Reporter Cells, hkb-il2bg) (P31785 whole entry, chain 2 of 2, further chain): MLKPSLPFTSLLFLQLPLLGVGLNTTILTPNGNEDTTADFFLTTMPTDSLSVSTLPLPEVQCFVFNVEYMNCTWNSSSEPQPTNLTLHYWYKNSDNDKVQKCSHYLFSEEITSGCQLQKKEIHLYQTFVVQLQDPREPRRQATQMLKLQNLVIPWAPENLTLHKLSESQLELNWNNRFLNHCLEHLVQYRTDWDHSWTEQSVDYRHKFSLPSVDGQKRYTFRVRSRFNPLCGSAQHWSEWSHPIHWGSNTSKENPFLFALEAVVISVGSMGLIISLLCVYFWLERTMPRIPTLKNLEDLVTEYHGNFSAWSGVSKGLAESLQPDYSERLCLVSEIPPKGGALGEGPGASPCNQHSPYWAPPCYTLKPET

| Binder | EC-50 (IL-2 reporter HEK blue cells, SEAP, absorbance 630 nm) |
| --- | --- |
| B12 | 184 pM |
| B13 | 211 pM |
| B14 | 251 pM |
